# T1: FcgRIIaR (human, UniProt P12318 34-217)
# T1 construct: extracellular domain; Allotype R131; also called FcγRIIa R; FcgRIIa type R; not shown: His tag attached to the C terminus
# T1 sequence (looked up): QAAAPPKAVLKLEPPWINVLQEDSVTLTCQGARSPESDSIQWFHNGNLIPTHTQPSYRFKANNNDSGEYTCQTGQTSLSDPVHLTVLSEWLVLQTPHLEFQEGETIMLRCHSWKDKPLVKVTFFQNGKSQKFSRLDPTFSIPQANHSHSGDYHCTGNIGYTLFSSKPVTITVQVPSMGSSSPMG
# T2: FcgRIIaH (human, UniProt P12318 34-217)
# T2 construct: extracellular domain; Allotype H131; also called FcγRIIa H; FcgRIIa type H; not shown: His tag attached to the C terminus
# T2 sequence (looked up): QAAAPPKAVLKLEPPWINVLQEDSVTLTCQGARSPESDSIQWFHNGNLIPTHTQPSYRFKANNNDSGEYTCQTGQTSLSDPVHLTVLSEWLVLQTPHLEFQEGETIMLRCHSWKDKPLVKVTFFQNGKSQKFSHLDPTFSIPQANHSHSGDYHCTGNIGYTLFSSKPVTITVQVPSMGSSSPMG
# T3: FcgRIIb (human, UniProt P31994 43-217)
# T3 construct: extracellular domain; also called FcγRIIb; CD32B; not shown: His tag attached to the C terminus
# T3 sequence (looked up): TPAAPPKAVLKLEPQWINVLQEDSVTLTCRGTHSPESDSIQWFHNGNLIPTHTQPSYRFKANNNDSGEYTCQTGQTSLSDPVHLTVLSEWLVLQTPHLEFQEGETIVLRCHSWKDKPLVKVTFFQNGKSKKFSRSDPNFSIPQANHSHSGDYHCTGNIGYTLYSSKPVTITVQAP
# Tests used:
# [1] = molecular target: T4, FcgRIIIa F (FcγRIIIa type F) extracellular domain with C-terminal His tag (human, UniProt P08637 17-208); assay: SPR (Biacore); relative binding activity of the heterodimerized antibody with the alteration in one H chain
# T4 construct: extracellular domain; also called FcγRIIIa F; 3aF; not shown: His tag attached to the C terminus
# T4 sequence (P08637 17-208): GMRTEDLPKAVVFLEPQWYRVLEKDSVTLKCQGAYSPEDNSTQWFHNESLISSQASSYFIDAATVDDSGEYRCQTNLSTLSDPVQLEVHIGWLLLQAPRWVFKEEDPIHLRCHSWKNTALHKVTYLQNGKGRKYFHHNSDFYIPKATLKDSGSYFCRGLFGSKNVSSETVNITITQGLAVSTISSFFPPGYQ
# [2] = molecular target: T5, FcgRIa (human, UniProt P12314 16-292); assay: SPR (Biacore); KD of H240-Kn120/H240-Hl068/L73-k0 divided by KD of the sample
# T5 construct: extracellular domain; Soluble extracellular domain expressed in FreeStyle293 cells; also called FcγRIa; FcγRI; not shown: His tag attached to the C terminus
# T5 sequence (P12314 16-292): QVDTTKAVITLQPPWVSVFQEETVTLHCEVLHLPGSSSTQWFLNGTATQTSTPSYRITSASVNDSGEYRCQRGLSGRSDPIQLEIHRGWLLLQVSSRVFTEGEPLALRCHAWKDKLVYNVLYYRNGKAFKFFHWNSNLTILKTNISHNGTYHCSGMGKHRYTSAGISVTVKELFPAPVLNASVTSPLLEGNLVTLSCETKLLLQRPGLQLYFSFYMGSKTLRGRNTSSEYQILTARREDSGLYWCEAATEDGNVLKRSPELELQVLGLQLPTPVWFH
# Description: (§1) Analysis of interaction between objective antibody and the FcγR was carried out using Biacore T100 (GE Healthcare), Biacore T200, Biacore A100, and Biacore 4000. HBS-EP+ (GE Healthcare) was used as the running buffer, and the measurement temperature was set to 25° C. Chips produced by immobilizing the antigen peptide by the amine coupling method to a Series S sensor Chip CM5 (GE Healthcare), chips produced by allowing preliminarily biotinylated antigen peptides to interact with and immobilize onto a Series S Sensor Chip SA (certified) (GE Healthcare), chips produced by immobilizing Protein L (ACTIGEN, BioVision) to Series S Sencor Chip CM5 (GE Healthcare), or chips produced by immobilizing Protein A/G (Thermo Scientific) to Series S Sencor Chip CM5 (GE Healthcare) were used. Antibodies of interest were captured onto these chips, and allowed to interact to each FcγR diluted with running buffer. To regenerate and repeatedly use the chip, the antibodies captured onto the chip were washed off by reacting 10 mM glycine-HCl, pH 1.5.
# [3] = molecular target: T1, FcgRIIaR; assay: as above
# Description: as §1
# [4] = molecular target: T2, FcgRIIaH; assay: as above
# Description: as §1
# [5] = molecular target: T3, FcgRIIb; assay: as above
# Description: as §1
# [6] = molecular target: T6, FcgRIIIaV (human, UniProt P08637 17-208); assay: as above
# T6 construct: extracellular domain; Allotype V158; also called FcγRIIIa V; not shown: His tag attached to the C terminus
# T6 sequence (P08637 17-208 F176V limits assumed): as the sequence (P08637 17-208) above, with F160V counted along it
# Description: as §1
Binder,He/Con_3aF [1],further results
"GpH7-A5/GpH7-B3 variant (A330P)/GpL16-k0 (antibody, human IgG1, kappa, also called He Ab A330_05P) heavy 1: not shown heavy 2: not shown light: DIVMTQSPLSLPVTPGEPASISCQASESLVHSNRNTYLHWYLQKPGQSPQLLIYKVSNRFSGVPDRFSGSGSGTDFTLKISRVEAEDVGVYYCSQNTHVPPTFGQGTKVEIERTVAAPSVFIFPPSDEQLKSGTASVVCLLNNFYPREAKVQWKVDNALQSGNSQESVTEQDSKDSTYSLSSTLTLSKADYEKHKVYACEVTHQGLSSPVTKSFNRGEC",152 % of GpH7-A5/GpH7-B3/GpL16-k0 (= 100),–
"GpH7-A5/GpH7-B3 variant (K334I)/GpL16-k0 (antibody, human IgG1, kappa, also called He Ab K334_07I) heavy 1: not shown heavy 2: not shown light: DIVMTQSPLSLPVTPGEPASISCQASESLVHSNRNTYLHWYLQKPGQSPQLLIYKVSNRFSGVPDRFSGSGSGTDFTLKISRVEAEDVGVYYCSQNTHVPPTFGQGTKVEIERTVAAPSVFIFPPSDEQLKSGTASVVCLLNNFYPREAKVQWKVDNALQSGNSQESVTEQDSKDSTYSLSSTLTLSKADYEKHKVYACEVTHQGLSSPVTKSFNRGEC",156 % of GpH7-A5/GpH7-B3/GpL16-k0 (= 100),–
"GpH7-A5/GpH7-B3-15-02A/GpL16-k0 (antibody, human IgG1, kappa, also called GpH7-A5/GpH7-B3 variant (S298A)/GpL16-k0; He Ab S298_02A) heavy 1: not shown heavy 2: not shown light: DIVMTQSPLSLPVTPGEPASISCQASESLVHSNRNTYLHWYLQKPGQSPQLLIYKVSNRFSGVPDRFSGSGSGTDFTLKISRVEAEDVGVYYCSQNTHVPPTFGQGTKVEIERTVAAPSVFIFPPSDEQLKSGTASVVCLLNNFYPREAKVQWKVDNALQSGNSQESVTEQDSKDSTYSLSSTLTLSKADYEKHKVYACEVTHQGLSSPVTKSFNRGEC",151 % of GpH7-A5/GpH7-B3/GpL16-k0 (= 100),–
"GpH7-A5/GpH7-B3 variant (K334D)/GpL16-k0 (antibody, human IgG1, kappa, also called He Ab K334_09D) heavy 1: not shown heavy 2: not shown light: DIVMTQSPLSLPVTPGEPASISCQASESLVHSNRNTYLHWYLQKPGQSPQLLIYKVSNRFSGVPDRFSGSGSGTDFTLKISRVEAEDVGVYYCSQNTHVPPTFGQGTKVEIERTVAAPSVFIFPPSDEQLKSGTASVVCLLNNFYPREAKVQWKVDNALQSGNSQESVTEQDSKDSTYSLSSTLTLSKADYEKHKVYACEVTHQGLSSPVTKSFNRGEC",164 % of GpH7-A5/GpH7-B3/GpL16-k0 (= 100),–
"GpH7-A5/GpH7-B3 variant (K326T)/GpL16-k0 (antibody, human IgG1, kappa, also called He Ab K326_14T) heavy 1: not shown heavy 2: not shown light: DIVMTQSPLSLPVTPGEPASISCQASESLVHSNRNTYLHWYLQKPGQSPQLLIYKVSNRFSGVPDRFSGSGSGTDFTLKISRVEAEDVGVYYCSQNTHVPPTFGQGTKVEIERTVAAPSVFIFPPSDEQLKSGTASVVCLLNNFYPREAKVQWKVDNALQSGNSQESVTEQDSKDSTYSLSSTLTLSKADYEKHKVYACEVTHQGLSSPVTKSFNRGEC",140 % of GpH7-A5/GpH7-B3/GpL16-k0 (= 100),–
"GpH7-A5/GpH7-B3 variant (K334E)/GpL16-k0 (antibody, human IgG1, kappa, also called He Ab K334_10E) heavy 1: not shown heavy 2: not shown light: DIVMTQSPLSLPVTPGEPASISCQASESLVHSNRNTYLHWYLQKPGQSPQLLIYKVSNRFSGVPDRFSGSGSGTDFTLKISRVEAEDVGVYYCSQNTHVPPTFGQGTKVEIERTVAAPSVFIFPPSDEQLKSGTASVVCLLNNFYPREAKVQWKVDNALQSGNSQESVTEQDSKDSTYSLSSTLTLSKADYEKHKVYACEVTHQGLSSPVTKSFNRGEC",186 % of GpH7-A5/GpH7-B3/GpL16-k0 (= 100),–
"GpH7-A5/GpH7-B3 variant (H268E)/GpL16-k0 (antibody, human IgG1, kappa, also called He Ab H268_10E) heavy 1: not shown heavy 2: not shown light: DIVMTQSPLSLPVTPGEPASISCQASESLVHSNRNTYLHWYLQKPGQSPQLLIYKVSNRFSGVPDRFSGSGSGTDFTLKISRVEAEDVGVYYCSQNTHVPPTFGQGTKVEIERTVAAPSVFIFPPSDEQLKSGTASVVCLLNNFYPREAKVQWKVDNALQSGNSQESVTEQDSKDSTYSLSSTLTLSKADYEKHKVYACEVTHQGLSSPVTKSFNRGEC",184 % of GpH7-A5/GpH7-B3/GpL16-k0 (= 100),–
"GpH7-A5/GpH7-B3 variant (K326I)/GpL16-k0 (antibody, human IgG1, kappa, also called He Ab K326_07I) heavy 1: not shown heavy 2: not shown light: DIVMTQSPLSLPVTPGEPASISCQASESLVHSNRNTYLHWYLQKPGQSPQLLIYKVSNRFSGVPDRFSGSGSGTDFTLKISRVEAEDVGVYYCSQNTHVPPTFGQGTKVEIERTVAAPSVFIFPPSDEQLKSGTASVVCLLNNFYPREAKVQWKVDNALQSGNSQESVTEQDSKDSTYSLSSTLTLSKADYEKHKVYACEVTHQGLSSPVTKSFNRGEC",153 % of GpH7-A5/GpH7-B3/GpL16-k0 (= 100),–
"GpH7-A5/GpH7-B3 variant (K326D)/GpL16-k0 (antibody, human IgG1, kappa, also called He Ab K326_09D) heavy 1: not shown heavy 2: not shown light: DIVMTQSPLSLPVTPGEPASISCQASESLVHSNRNTYLHWYLQKPGQSPQLLIYKVSNRFSGVPDRFSGSGSGTDFTLKISRVEAEDVGVYYCSQNTHVPPTFGQGTKVEIERTVAAPSVFIFPPSDEQLKSGTASVVCLLNNFYPREAKVQWKVDNALQSGNSQESVTEQDSKDSTYSLSSTLTLSKADYEKHKVYACEVTHQGLSSPVTKSFNRGEC",148 % of GpH7-A5/GpH7-B3/GpL16-k0 (= 100),–
"GpH7-A5/GpH7-B3 variant (H268A)/GpL16-k0 (antibody, human IgG1, kappa, also called He Ab H268_02A) heavy 1: not shown heavy 2: not shown light: DIVMTQSPLSLPVTPGEPASISCQASESLVHSNRNTYLHWYLQKPGQSPQLLIYKVSNRFSGVPDRFSGSGSGTDFTLKISRVEAEDVGVYYCSQNTHVPPTFGQGTKVEIERTVAAPSVFIFPPSDEQLKSGTASVVCLLNNFYPREAKVQWKVDNALQSGNSQESVTEQDSKDSTYSLSSTLTLSKADYEKHKVYACEVTHQGLSSPVTKSFNRGEC",121 % of GpH7-A5/GpH7-B3/GpL16-k0 (= 100),–
"H240-Kn149/H240-Hl068/L73-k0 (antibody, human IgG1, kappa, Heterodimerized anti-epiregulin IgG1 antibody; L328W and K334L in H240-Kn120) heavy 1: QDQLVQSGAEVKKPGASVKVSCKASGFNIKDTYIQWVRQAPGQGLEWMGRIDPLRKQTKYREKFEGRVTITADTSTNTAYMELSSLRSEDTAVYYCVRSGREFDYWGQGTLVTVSSASTKGPSVFPLAPSSKSTSGGTAALGCLVKDYFPEPVTVSWNSGALTSGVHTFPAVLQSSGLYSLSSVVTVPSSSLGTQTYICNVNHKPSNTKVDKKVEPKSCDKTHTCPPCPAPEYYWGPMVFLFPPKPKDTLMISRTPEVTCVVVDVSDEDPEVKFNWYVDGVEVHNAKTKPREEQYNATYRVVSVLTVLHQDWLNGKEYKCKVSNKDWPAPIELTISKAKGQPREPQVCTLPPSRDELTKNQVSLWCLVKGFYPSDIAVEWESNGQPENNYKTTPPVLDSDGSFFLYSKLTVDKSRWQQGNVFSCSVMHEALHNHYTQKSLSLSP heavy 2: QDQLVQSGAEVKKPGASVKVSCKASGFNIKDTYIQWVRQAPGQGLEWMGRIDPLRKQTKYREKFEGRVTITADTSTNTAYMELSSLRSEDTAVYYCVRSGREFDYWGQGTLVTVSSASTKGPSVFPLAPSSKSTSGGTAALGCLVKDYFPEPVTVSWNSGALTSGVHTFPAVLQSSGLYSLSSVVTVPSSSLGTQTYICNVNHKPSNTKVDKKVEPKSCDKTHTCPPCPAPELLGGPSVFLFPPKPKDTLMISRTPEVTCVVVDVSHEEPEVKFNWYVDGVEVHNAKTKPREEQYNSTYRVVSVLTVLHQDWLNGKEYKCKVSNDALPKPIEETISKAKGQPREPQVYTLPPSRCELTKNQVSLSCAVKGFYPSDIAVEWESNGQPENNYKTTPPVLDSDGSFFLVSKLTVDKSRWQQGNVFSCSVMHEALHNHYTQKSLSLSP light: DIQMTQSPSSLSASVGDRVTITCRASQDIHKYIAWYQQKPGQAPRLLIQYTSTLQPGVPSRFSGSGSGTDYTFTISSLQPEDIATYYCLQYEQLRTFGGGTKVEIKRTVAAPSVFIFPPSDEQLKSGTASVVCLLNNFYPREAKVQWKVDNALQSGNSQESVTEQDSKDSTYSLSSTLTLSKADYEKHKVYACEVTHQGLSSPVTKSFNRGEC",–,relative KD [2]: 0.4; relative KD [3]: 1.1; relative KD [4]: 1.6; relative KD [5]: 1; relative KD [6]: 1.1
